This is an account of results in article PMC12482190, “Characterization of PPE19 as a novel mediator of Mycobacterium tuberculosis-macrophage interactions” (mSphere, 2025).

This experiment addresses T1, PPE19-GST-bio (biotinylated PPE19 with an N-terminal GST tag) (Mycobacterium tuberculosis H37Rv, UniProt P9WI25 1-396).
T1 construct: also called biotinylated PPE19-GST; not shown: GST, N-terminal, kept
T1 sequence: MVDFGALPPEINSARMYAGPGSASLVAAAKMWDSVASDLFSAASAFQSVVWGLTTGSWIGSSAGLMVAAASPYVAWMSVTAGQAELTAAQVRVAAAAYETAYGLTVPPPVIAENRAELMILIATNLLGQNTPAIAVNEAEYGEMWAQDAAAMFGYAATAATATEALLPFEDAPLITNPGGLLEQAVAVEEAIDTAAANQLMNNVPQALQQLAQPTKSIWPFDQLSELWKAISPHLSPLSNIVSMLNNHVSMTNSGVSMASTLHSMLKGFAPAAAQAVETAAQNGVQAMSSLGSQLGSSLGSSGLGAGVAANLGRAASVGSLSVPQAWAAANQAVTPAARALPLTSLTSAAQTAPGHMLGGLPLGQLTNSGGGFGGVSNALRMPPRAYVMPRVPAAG
The experiment is described as follows: AlphaScreen or HTRF. The conditions noted are these: both partners purified. A general note: Bead proximity is the source of the signal in Alpha formats.

B1: PE13-His (PE13 with a polyhistidine affinity tag) (natural protein)
chain: MSFVMAYPEMLAAAADTLQSIGATTVASNAAAAAPTTGVVPPAADEVSALTAAHFAAHAAMYQSVSARAAAIHDQFVATLASSASSYAATEVANAAAAS
As to B1, the binding result was “binds”.
